Data on three substances can be found in US7078478B2, “Inhibition of the proliferation of cells of the multiple myeloma” (GSF-Forschungszentrum für Umwelt Gesundheit, GmbH, priority 1999, dated 2006).

Where only a bound is given, the exact number is not on record here.

The test system of experiment [1] is IL-6 dependent murine cell line 7TD-1. In words: IL-6 induced cell proliferation of 7TD-1 cells incubated with peptides, microscopic cell counting. The conditions noted are these: 7TD-1 stimulated with 40 pg IL-6, 100 μM peptide, 4 days, compared with untreated or unstimulated cells. In kind it is cell-based. The protocol: Subfragments of the previously described 41 amino acid Hck binding domain of gp130 were used to narrow down the essential parts of this domain. The subfragments, which are shown in FIG. 12, were synthesized by solid phase synthesis, N-terminally coupled to myristate in order to render them membrane soluble, and diluted in DMSO. A MM-cell line was incubated with the different peptides and cell proliferation was measured.
To determine the effects of the different peptides on IL-6 induced cell proliferation, the IL-6 dependent murine cell line 7TD-1 was stimulated with 40 pg of IL-6 and incubated with 100 μM of the different peptides. After 4 days, the cell proliferation was determined by microscopic cell counting.

The target in experiment [2] is DDM mutant (double point and deletion mutant) of Eg (mouse; human) (UniProt P14753). As to the kind of experiment: co-immunoprecipitation with anti-Hck, anti-His blot, Cos-7 lysates (FIG. 6).
Experiment [3] addresses deletion mutant Δ771-827 of Eg (mouse; human) (UniProt P14753). The experiment is described as above.
Experiment [4] shares this target. In words: co-immunoprecipitation with anti-Hck, anti-His blot, Cos-7 lysates (FIG. 5A).
The target is the same in experiment [5]. As to the kind of experiment: co-immunoprecipitation with anti-Hck, anti-His blot, Cos-7 lysates (FIG. 5B).

Regarding TQPLLDSEERPEDLQLVD [compound 2], in experiment [1], the cell proliferation result was “down regulation of cell proliferation to the basal level”.
“Hck tyrosine kinase (wild type Hck, expressed from pcDNA3-Hck or pDpuro-Hck) (from UniProt P08631 2-526) (enzyme)”: the reduction of Hck binding to gp130 in experiment [2] and in experiment [3] was over 90% throughout. For the same substance, the decrease of Hck co-precipitation with gp130 in experiment [4] was over 90%. In experiment [5], this substance showed a loss of gp130 co-precipitation with Hck of 90%.
With LLDSEERPEDLQLVD [compound 6], the cell proliferation result in experiment [1] is reported as “down regulation of cell proliferation to the basal level”.
